The source of these data is patent publication US20030159166A1 (ORTHO MCNEIL PHARMACEUTICAL, published 2003).

This assay addresses T1, recombinant soluble HLA-DM (human, UniProt P28067 27-233; P28068 19-218).
T1 construct: extracellular domain; Expressed in Drosophila Schneider-2 cells, purified on Ni-NTA agarose and by gel filtration
In words: in vitro complex formation, isolation on Ni-NTA agarose by the His tag of DM.

B1: DO-Fc fusion protein (extracellular domains of DOA and DOB fused to the Fc domain of human IgG1) (Fc fusion)
MHC II alpha: TKADHMGSYGPAFYQSYGASGQFTHEFDEEQLFSVDLKKSEAVWRLPEFGDFARFDPQGGLAGIAAIKAHLDILVERSNRSRAINVPPRVTVLPKSRVELGQPNILICIVDNIFPPVINITWLRNGQTVTEGVAQTSFYSQPDHLFRKFHYLPFVPSAEDVYDCQVEHWGLDAPLLRHWELQVPIPPPDAME
MHC II beta: TDSPEDFVIQAKADCYFTNGTEKVQFVVRFIFNLEEYVRFDSDVGMFVALTKLGQPDAEQWNSRLDLLERSRQAVDGVCRHNYRLGAPFTVGRKVQPEVTVYPERTPLLHQHNLLHCSVTGFYPGDIKIKWFLNGQEERAGVMSTGPIRNGDWTFQTVVMLEMTPELGHVYTCLVDHSSLLSPVSVEWRAQSEYSWRK
notes: extracellular domain; Expressed in Drosophila Schneider-2 cells, purified on protein A sepharose; also called HLA-DO; not shown: human IgG1 Fc domain
As for B1, the binding result is listed as “binds”.
